Test results taken from patent US20250388664A1 (BIOARCTIC, published 2025).
Where two headings read alike, the source gives them in different places.

Assays:
AβpE3-40 monomer [1] = target: T1, AβpE3-40 monomer (UniProt P05067 674-711, pyroglutamate at position 3 (N-terminal residue)); experiment: SPR, antibody immobilised, monomer injected, 1:1 fit
T1 construct: range 3-40 (Aβ numbering); Synthetic peptide (Bachem/Anaspec), verified monomeric by SEC; also called monomeric AβpE3-40
Protocol: Single cycle kinetics with the binding molecules immobilized on a CM5 chip was used to measure binding to the AβpE3-40 monomer. For the measurements, 5 μg/ml of analyte binding molecule was immobilized on the chip. […] Regeneration of the surface between cycles was done by injecting 30 μl 3 M MgCl₂ (Cytiva, cat. No. 29234600). The binding data was fitted to a 1:1 interaction model.

AβpE3-42 protofibrils = target: T2, AβpE3-42 protofibrils (UniProt P05067 674-713, pyroglutamate at position 3 (N-terminal residue)); experiment: inhibition ELISA, antigen titrated in solution, AβpE3-40 coat
T2 construct: range 3-42 (Aβ numbering); Soluble aggregates made from AβpE3-42 peptide, purified in the void peak of SEC; also called AβpE3-42 PF
T2 sequence (P05067 674-713): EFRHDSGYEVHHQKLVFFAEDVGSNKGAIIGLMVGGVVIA
Protocol: (§1) The tested molecules were incubated at a fixed concentration (0.1 μg/ml) with titrating concentrations of the different AβpE3 antigens. After incubation for 45 min at 900 rpm to reach equilibrium, the samples were added to a blocked and washed ELISA plate with an AβpE3-40 coat (0.5 μM). The samples were incubated on the plate for 25 min without shaking followed by washing, incubation with detection antibody, another washing step and finally incubation with alkaline phosphatase substrate.

AβpE3-40 monomer [2] = target: T1, AβpE3-40 monomer; experiment: as above
Protocol: as §1

AβpE3-40 monomer [3] = target: T1, AβpE3-40 monomer; experiment: cell-based or functional assay
hTfR1 on cell surfaces = target: T3, hTfR1 on cell surfaces (human, UniProt P02786 1-760); experiment: flow cytometry on Fc-blocked K562 cells, 1 h at 4°C, detection with PE anti-human IgG Fc
T3 construct: Endogenous receptor on human cell lines; also called endogenous hTfR1 on hCMEC/D3, THP-1 and K562 cells; CD71

[4] = target: T4, truncated cTfR1 of SEQ ID NO:123 (cynomolgus monkey, UniProt Q5RDH6 122-760 (Pongo abelii entry)); experiment: SPR (Biacore 8K), single cycle kinetics: cTfR1 amine-coupled on a CM5 chip, Fab injected in a 2-fold series of four steps from 100 nM
T4 construct: also called cynomolgus TfR1
T4 chain: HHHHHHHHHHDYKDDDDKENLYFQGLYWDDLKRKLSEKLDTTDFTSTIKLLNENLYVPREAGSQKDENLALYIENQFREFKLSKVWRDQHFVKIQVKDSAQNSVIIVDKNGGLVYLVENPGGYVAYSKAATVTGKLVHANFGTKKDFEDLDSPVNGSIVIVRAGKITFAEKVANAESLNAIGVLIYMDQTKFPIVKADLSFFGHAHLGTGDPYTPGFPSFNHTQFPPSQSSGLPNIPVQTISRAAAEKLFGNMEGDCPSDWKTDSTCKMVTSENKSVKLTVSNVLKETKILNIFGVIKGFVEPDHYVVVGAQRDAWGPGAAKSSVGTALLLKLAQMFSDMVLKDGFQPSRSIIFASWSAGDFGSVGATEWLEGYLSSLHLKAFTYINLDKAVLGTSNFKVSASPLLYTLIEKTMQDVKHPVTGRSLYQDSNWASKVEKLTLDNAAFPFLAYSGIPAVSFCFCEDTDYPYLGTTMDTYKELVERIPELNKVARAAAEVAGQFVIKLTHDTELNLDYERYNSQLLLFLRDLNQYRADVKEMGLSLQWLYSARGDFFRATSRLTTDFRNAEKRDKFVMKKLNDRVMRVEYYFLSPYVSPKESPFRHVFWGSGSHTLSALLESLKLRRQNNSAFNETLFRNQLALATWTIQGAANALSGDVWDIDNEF
Protocol: Binding of the purified Fabs to human and cynomolgus TfR1 was evaluated using either SPR (FIG. 44) or indirect ELISA (FIG. 45). For SPR, a Biacore 8K instrument (Cytiva) was used. […] The Fabs were injected over the chip using a 2-fold dilution series in four steps starting at 100 nM. The interaction was measured using the single cycle kinetics method with a contact time of 120 s at a flow rate of 30 μl/min followed by a dissociation time of 1000 s. Regeneration of the surface between cycles was done by injecting 3M MgCl₂. The binding data was fitted to a 1:1 interaction model. The Fabs were diluted in HBS-EP+ (Cytiva, #BR100669). Experiments were performed at 25° C.

[5] = target: T5, truncated hTfR1 of SEQ ID NO:122 (human, UniProt P02786 122-760); experiment: SPR, TfR1 amine-coupled, Fab injected, 1:1 fit
T5 construct: also called human TfR1; Human TfR1
Method in brief: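 Biacore 8K at 25 °C in HBS-EP+, single cycle kinetics with Fab as analyte in four 2-fold steps from 100 nM; 120 s contact at 30 μl/min, 1000 s dissociation, 3M MgCl₂ regeneration. Kinetics fitted to a 1:1 interaction model.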

[6] = target: T6, hTfR1 (recombinant, construct not specified) (human, UniProt P02786 89-760, limits assumed); experiment: BLI: hTfR1 captured on biotinylated human holo-transferrin on streptavidin sensors, 15 nM Fab in solution, 120 s association, 300 s dissociation
T6 construct: also called biotinylated hTfR1
Protocol: A more detailed binding analysis by BLI was performed on purified, selected antibodies. […] For example, the BLI instrument Octet Red384 was used to measure binding between immobilized TfR1 and the tested Fab fragments in solution. […] Antibody binding to TfR1 was measured during an association phase of 120 s and a dissociation phase of 300 s.

[7] = target: T6, hTfR1 (recombinant, construct not …); experiment: indirect ELISA on an hTfR1 coat, detection with anti-mouse IgG F(ab')2, normalised A450 against log antibody concentration in pM
[8] = target: T5, truncated hTfR1 of SEQ ID NO:122; experiment: SPR, TfR1 amine-coupled, Fab injected, 1:1 fit; remark: listed apart in the source
Protocol: (§2) The interaction was measured using the single cycle kinetics method with a contact time of 120 s at a flow rate of […] followed by a dissociation time of 600 s. Regeneration of the surface between cycles was done by injecting 3M MgCl₂. The binding data were fitted to a 1:1 interaction model. The Fabs were diluted in HBS-EP+ (Cytiva, #BR100669). Experiments were performed at 25° C.

[9] = target: T4, truncated cTfR1 of SEQ ID NO:123; experiment: SPR, TfR1 amine-coupled, Fab injected, 1:1 fit
Protocol: as §2

T1 sequence (P05067 674-711): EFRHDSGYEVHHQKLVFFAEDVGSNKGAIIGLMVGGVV

B1: BA003 (antibody, human IgG1, kappa)
light: EIVLTQSPLSLSVTLGQSASISCRSSQSLLDSNGKTYLHWFILRPGQSPRRLIYLVSILDSGVPDRFSGSGSGTDFTLKISRVEAEDVGVYYCVQGTHFPFTFGSGTKLEIKRTVAAPSVFIFPPSDEQLKSGTASVVCLLNNFYPREAKVQWKVDNALQSGNSQESVTEQDSKDSTYSLSSTLTLSKADYEKHKVYACEVTHQGLSSPVTKSFNRGEC
heavy: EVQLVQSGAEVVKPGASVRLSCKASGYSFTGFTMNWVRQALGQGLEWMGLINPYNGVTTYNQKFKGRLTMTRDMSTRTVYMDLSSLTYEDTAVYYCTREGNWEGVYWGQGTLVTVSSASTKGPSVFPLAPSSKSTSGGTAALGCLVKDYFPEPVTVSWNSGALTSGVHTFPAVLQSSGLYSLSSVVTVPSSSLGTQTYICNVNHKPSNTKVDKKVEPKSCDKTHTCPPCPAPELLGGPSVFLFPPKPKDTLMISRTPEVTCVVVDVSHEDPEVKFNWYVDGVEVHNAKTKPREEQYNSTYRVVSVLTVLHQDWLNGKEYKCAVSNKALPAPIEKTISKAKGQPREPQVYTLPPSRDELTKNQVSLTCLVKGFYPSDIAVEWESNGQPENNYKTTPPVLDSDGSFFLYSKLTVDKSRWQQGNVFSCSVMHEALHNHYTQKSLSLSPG
notes: also called comparator antibody BA003; control antibody BA003
B1 gave a Kd (AβpE3-40 monomer [1]) of 2.33 nM, a koff (AβpE3-40 monomer [1]) of 0.000127 s⁻¹ and a kon (AβpE3-40 monomer [1]) of 54600 M⁻¹ s⁻¹. For the same binder, the IC50 (AβpE3-42 protofibrils) was 2.2 nM, the IC50 (AβpE3-40 monomer [2]) was 1.1 nM and the “Uptake of AβpE3-40 monomers in THP-1 cells, EC50” value (AβpE3-40 monomer [3]) was 2.2 nM. B1: no binding (tested: 10000 nM) (hTfR1 on cell surfaces).

B2: h26D3 variant LC5 Fab (Fab, V domains shown)
VH: EVQLVQSGAEVKKPGSSVKVSCKASGYIFTDYNMDWVRQAPGQGLEWIGDINPDYDTTSYNEKFKGRATLTVDKSTSTAYMELSSLRSEDTAVYYCARGGYSGSSYYHPMDYWGQGTLVTVSS
VL: DIQMTQSPSSVSASVGDRVTITCKSSQSLLYSTNQKNYLAWYQQKPGKAPKLLIYWASTRESGVPSRFSGSGSGTDFTLTISSLQPEDFATYYCQQAFIYPRTFGQGTKVEIK
notes: Single-mutant His-tagged Fab; also called Y97A
With B2 the binding result [4] was “binds” and the Kd [5] was 240 nM.

B3: 37D10-Fab (Fab, V domains shown)
VH: QVQLQQSGAELVRPGTSVKISCKASGYAFTNYWLGWVKQRPGHGLEWIGDIFPGSDNTYYNEKFKGKATLTADKSSSTAYMQLSSLASEDSAVYFCARSGNFYAMDYWGQGTSVTVSS
VL: ENVLTQSPAIMSASPGEKVTMTCSASSSVNYMNWYQQKSSTFPKLWIYDTSKLASGVPGRFSGSGSGKFYSLTISSMEAEDVATYYCFQGSGYPFTFGSGTKLEIK
notes: Fab of murine 37D10
B3: binds [6].

B4: 26D3-Fab (Fab, V domains shown)
VH: EVQLQQFGVELVKPGASVKISCKASGYIFTDYNMDWVKQSHGKSLEWIGDINPDYDTTSYNEKFKGKATLTVDKSSSTAYMELRSLTSEDTAVYYCARGGYSGSSYYHPMDYWGQGTSVTVSS
VL: DIVMSQSPSSLAVSVGEKITMSCKSSQSLLYSTNQKNYLAWYQQKPGQSPELLIYWASTRESGVPDRFTGSGSGTDFTLTISNVRAEDLAVYYCQQYFIYPRTFGGGTKLEIK
notes: Fab of murine 26D3; also called murine 26D3 Fab
In the case of B4, the “EC50 (read off the curve)” value [7] is reported as about 0.06 nM, the Kd [8] is reported as 3.6 nM and the Kd [9] is reported as 10 nM.
